Assay results as given in US20260092121A1 (TALEM THERAPEUTICS, published 2026).

What was measured:
[1] = molecular target: TrkB in PathHunter eXpress TrkB Functional Assay cells (modified U2OS); assay: cell-based or functional assay
[2] = molecular target: T1, mouse TrkB-ECD-GST (mouse, UniProt P15209 32-429); assay: ELISA
T1 construct: extracellular domain; in-house fusion, HEK293; also called mTrkB-ECD-GST; mTrkB (ELISA); not shown: glutathione S-transferase (GST) fusion part

[3] = molecular target: human TrkC-His (human, UniProt Q16288 32-429); assay: ELISA
[4] = molecular target: human TrkA-His (human, UniProt P04629 33-417, limits assumed); assay: ELISA
[5] = molecular target: T2, human TrkB-His (human, UniProt Q16620 32-430); assay: BLI off-rate, mAb captured
T2 construct: in-house fusion of the TrkB ECD with poly-His, HEK293; also called huTrkB-His; hTrkB-His; not shown: poly-His tag

human TrkA-His, sequence (P04629 33-417 limits assumed): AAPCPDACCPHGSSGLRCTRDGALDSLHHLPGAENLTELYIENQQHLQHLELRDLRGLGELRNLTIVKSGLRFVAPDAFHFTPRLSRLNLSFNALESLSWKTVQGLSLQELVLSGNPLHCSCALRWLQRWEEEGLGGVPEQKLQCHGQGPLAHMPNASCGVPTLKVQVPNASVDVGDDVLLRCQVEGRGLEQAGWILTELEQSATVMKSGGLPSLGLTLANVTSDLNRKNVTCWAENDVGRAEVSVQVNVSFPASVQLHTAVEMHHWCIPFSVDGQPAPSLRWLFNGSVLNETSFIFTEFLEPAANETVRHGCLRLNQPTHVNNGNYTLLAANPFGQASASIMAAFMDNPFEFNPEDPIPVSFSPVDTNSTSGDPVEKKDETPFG

Binder | TrkB activation (EC50) [1] [µg/mL] | binding result [2] | binding result [3] | binding result [4] | koff [5] [s⁻¹]
anti-TrkB clone 3C02 (antibody, V domains shown, full-length IgG) VH: QVQLVQSGAEVKKPGESLKISCKGSGYSFTSYWIGWVRQMPGKGLEWMGIIYPGDSDTRYSPSFQGQVTISADKSISTAYLQWSSLKASDTAMYYCARGGPPDYWGQGTLVTVSS VL: not shown | 0.15 | binds | no binding (tested: up to 10 µg/mL) | no binding (tested: up to 10 µg/mL) | 0.00494
anti-TrkB clone 3A06 (antibody, V domains shown, full-length IgG) VH: not shown VL: QSVLTQPPSVSVSPGQTASITCSGDKLGNKYASWYRQKPGQSPVLVIYQDTKRPSGIPERFSGSNSGNTATLTISGTQAMDEGDYYCQAWDSSTAVVFGGGTKLTVL | 0.15 | binds | no binding (tested: up to 10 µg/mL) | no binding (tested: up to 10 µg/mL) | 0.00453
anti-TrkB clone 5C07 (antibody, V domains shown, full-length IgG) VH: QVQLVQSGAEVKKPGESLKISCKGFGYSFTNYWIGWVRQMPGKGLEWMGIIYPGDSDTRYSPSFQGQVTISADKSITTAYLQWSSLKASDTAMYYCASHTKDGTWDIWGQGTMVTVSS VL: QAGLTQPPSVSVSPGQTASITCSGERLGDKYVSWYQQKPGQSPVLVIYQDDKRPSGVPERFSGSNSGNTATLNISGTQPMDEADYYCQAWDSSTSLYVFGTGTKLTVL | 0.47 | binds | no binding (tested: up to 10 µg/mL) | no binding (tested: up to 10 µg/mL) | 0.00457
anti-TrkB clone 3A05 (antibody, V domains shown, full-length IgG) VH: QVQLVESGAEVKKPGESLKISCKGSGYSFTTYWIAWVRQMPGKGLEWMGIIYPGDSDTRYSPSFQGQVTISADKSISTAYLQWSSLKASDTAMYYCARLGGGMDVWGQGTMVTVSS VL: QAGLTQPPSASGTPGQRVTISCSGSSSNIGSNTVSWYRQIPGTAPKFLLYGNNQRPSGVPARFSGSKSGTSASLAVDGLQSDDEADYYCAAWDDSLSGYVFGTGTKLTVL | 0.006 | binds | no binding (tested: up to 10 µg/mL) | no binding (tested: up to 10 µg/mL) | 0.00435
anti-TrkB clone 6B04 (antibody, V domains shown, full-length IgG) VH: QVQLVQSGAEVKKPGESLKISCKGSGYSFTSYWIGWVRQMPGKGLEWMGIIYPGDSDTRYSPSFQGQVTISADKSISTAYLQWSSLKASDTAIYYCARLGGAMDVWGQGTLVTVSS VL: SYELMQPPSLSVSPGQTASITCSGDKLGDKYVSWYQQRPGQSPVLVMYQDKKRPSGIPKRFSGSNSGNTATLTISGTQAMDEADYYCAAWDDSLNGYYVFGTGTQLTVL | 0.039 | binds | no binding (tested: up to 10 µg/mL) | no binding (tested: up to 10 µg/mL) | 0.00678
anti-TrkB clone 3B04 (antibody, V domains shown, full-length IgG) VH: QVQLVQSGAEVKKPGEPLKISCKGSGYSFPTYWIAWVRQMPGKGLEWMGIIYPGDSDTRYSPSFQGQVTISADKSISTAYLQWGSLRASDTAMYYCARGGSGLDYWGQGTLVTVSS VL: SYELMQPPSVSVSPGQTASITCSGDKLGTKYVSWYQQKPGQSPVLVIYQDSKRPSGIPERFSGSNSGNTATLTISGTQAMDEADYYCQAWDSSTVVFGGGTKLTVL | 0.1 | binds | no binding (tested: up to 10 µg/mL) | no binding (tested: up to 10 µg/mL) | 0.00802
anti-TrkB clone 6F04 (antibody, V domains shown, full-length IgG) VH: EVQLVQSGAEVKKPGESLKISCKGSGYSFTSYWIGWVRQMPGKGLEWMGIIYPGDSDTRYSPSFQGQVTISADKSISTAYLQWSSLKASDTAMYYCARGSGGYDYWGQGTLVTVSS VL: QSVLTQPPSVSVSPGQTASITCSGNKLGDKFVSWYHQRPGQSPVLVIYEDNKRPSGIPERFSGSNSGNTATLTISGTQAMDEGDYYCQTWDVSSYVFGTGTKVTVL | 0.035 | binds | no binding (tested: up to 10 µg/mL) | no binding (tested: up to 10 µg/mL) | 0.00473
anti-TrkB clone 3F06 (antibody, V domains shown, full-length IgG) VH: QMQLVQSGAEVKKPGESLKISCKGSGYSFSTNWIGWVRQMPGKGLEWMGIIYPGDSDTRYSPSFQGQVTISADKSISTAYLQWSSLKASDTAMYYCARFYDSSGNDYWGQGTLVTVSS VL: QSVLTQPPSVSVSPGQTASITCSGDKLGDKYASWYQQKPGQSPVLVIFQDNKRPSGIPERFSGSNSGNTATLTISGTQAMDEADYYCQTWDSSTAIFGGGTKLTVL | 0.14 | binds | no binding (tested: up to 10 µg/mL) | no binding (tested: up to 10 µg/mL) | 0.00479
anti-TrkB clone 3F09 (antibody, V domains shown, full-length IgG) VH: EVQLVQSGAEVKKPGESLKISCKGSGYSFTSYWIGWVRQMPGKGLEWMGIIYPGDSDTRYSPSFQGQVTISADKSISTAYLQWSSLKASDTAMYYCVVRPAAAGTRIDYWGQGTLVTVSS VL: QSVLTQPPSVSVSPGQTASITCSGDKLGDKYASWYQQKPGQSPVLIIYQDNKRPSGIPERFSGSNSGNTATLTISGTQAMDEADYYCQAWDSSTYVFGTGTKLTVL | 0.053 | – | no binding (tested: up to 10 µg/mL) | no binding (tested: up to 10 µg/mL) | 0.00631
anti-TrkB clone 3E04 (antibody, V domains shown, full-length IgG) VH: EVQLVQSGAEVKKPGESLKISCKGSGYSFTSYWIGWVRQMPGKGLEWMGIIYPGDSDTRYSPSFQGQVTISADKSISTAYLQWSSLKASDTAMYYCASRLLFGDDAFDIWGQGTMVTVSS VL: SYVLTQPPSVSVSPGQTATITCSGDKLGDEYVSWYQQKPGQSPVLVIYQDSKRPSGIPERFSGSNSGNTATLTISGAQAVDEADYYCQAWDSNAGAFGTGTKLTVL | 0.11 | binds | no binding (tested: up to 10 µg/mL) | no binding (tested: up to 10 µg/mL) | 0.00534
anti-TrkB clone 6E08 (antibody, V domains shown, full-length IgG) VH: QVQLVQSGGGVVQPGRSLRLSCAASGFTFSSYAMHWVRQAPGKGLEWVAVISYDGSNKYYADSVKGRFTISRDNSKNTLYLQMNSLRAEDTAVYYCARAFRRYDAFDIWGQGTLVTVSS VL: DIQMTQTPLSLSVTLGQPASISCRSSQGLVYSDGNTYLNWFQQRPGQSPRRLIYKVSNRDSGVPDRFSGSGSGTDFTLKISRVEAEDVGVYYCMQGTHWPPAFGQGTKVEIK | 4.2 | binds | no binding (tested: up to 10 µg/mL) | no binding (tested: up to 10 µg/mL) | 0.0064
anti-TrkB clone 3H11 (antibody, V domains shown, full-length IgG) VH: QVQLQQSGPGLVKPSQTLSLTCAISGDSVSSNSAVWNWIRQSPSRGLEWLGRTYYRSKWYTDFAVSVKSRITINPDTSKNQFSLQLNSVTPEDTAVYYCARGRNGMDVWGQGTMVTVST VL: LPVLTQPPSASGTPGQRVTISCSGSSSNIGHKYVYWYQQLPGAAPKLLIYRNNQRPSGVPDRFSASKSGTSASLAISGLRSEDEADYYCATWDDSLNGVVFGGGTKVTVL | 0.02 | binds | no binding (tested: up to 10 µg/mL) | no binding (tested: up to 10 µg/mL) | 0.0057
anti-TrkB clone 3B09 (antibody, V domains shown, full-length IgG) VH: EVQLVQSGAEVKKPGESLKISCKGSGYSFTSYWIGWVRQMPGKGLEWMGIIYPGDSDTRYSPSFQGQVTISADKSISTAYLQWSSLKASDTAMYYCATPMEDGMDVWGQGTTVTVSS VL: QAGLTQPPSVSVSPGQTVTITCSADNLGDKYTSWYQQRPGQSPVLVIYQDTKRPSGIPARFSGSNSGNTATLTISGTQAMDEADYYCQAWDSSTGVFGTGTKVTVL | 0.094 | binds | no binding (tested: up to 10 µg/mL) | no binding (tested: up to 10 µg/mL) | 0.00472
anti-TrkB clone 1E07 (antibody, V domains shown, full-length IgG) VH: QVQLVQSGAEVKKPGESLRISCKGSGYSFTNNWINWVRQMPGKGLEWMGRIDPDDSYTNYSPSFQGHVIFSADKSSNTVYLQWSSLEASDTAMYYCARRAQGGGGYDYWGQGTLVTVSS VL: QSVLTQPPSVSGAPGQRVTISCTGSSSNIGAGFNVHWYQQVAGLAPKLLIHDNINRPSGVPDRFSGSKSGASASLTITGLQAEDEADYYCQSYDSSLSGWFAFGTGTKVTVL | 0.13 | binds | no binding (tested: up to 10 µg/mL) | no binding (tested: up to 10 µg/mL) | 0.00613
anti-TrkB clone 4F03 (antibody, V domains shown, full-length IgG) VH: EVQLVQSGAEVKKPGESLKISCKGSGYSFTSYWIGWVRQMPGKGLEWMGIIYPGDSDTRYSPSFQGQVTISADKSISTAYLQWSSLKASDTAMYYCASWGMDVWGQGTLVTVSS VL: QPVLTQPPSASGTPGQRVTISCSGSSSNIGTHTVNWYQQFPGTAPKLLMYSTFQRPSGVPDRFSGSKSGTSASLAISGLQSEDEADYYCAAWDDSLNGPVFGGGTQLTVL | 0.041 | – | no binding (tested: up to 10 µg/mL) | no binding (tested: up to 10 µg/mL) | 0.00639
